Reference: the supplement of paper PMC9732359
± gives the uncertainty stated by the source.

Experiment: protein stability index of a GFP-peptide fusion (yeast GPS) (PSI 1-4); higher = more stable; sorted into four equal gates, so the index is relative within each strain
In short: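 Plasmids in a pooled yeast library fused tiled 17-residue yeast protein peptides downstream of GFP and also expressed Cherry. Mid-log cultures grown without leucine were sorted into four equal gates by GFP/Cherry fluorescence ratio. Each gate's plasmids were PCR-amplified and Illumina-sequenced, and reads were matched to strains by barcodes. The protein stability index is derived by multiplying each gate's read frequency by its gate number and summing the results.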

| Sequence | protein stability index (doa10∆) | protein stability index (pdr5∆) | protein stability index (san1∆) | protein stability index (ubr1∆) |
| --- | --- | --- | --- | --- |
| NNSANNNAHSSDLGTVV [YMR153W/NUP53] | 3.03 ± 0.15 | 2.62 ± 0.1 | 2.7 ± 0.091 | 2.28 ± 0.044 |
| AIKYRPTSVKLLKTTVP [POP3] | 2.23 ± 0.037 | 2.3 ± 0.039 | 2.31 ± 0.057 | 2.14 ± 0.033 |
| PNLATFISSGTSLLDSL [YJL039C/NUP192] | 2.23 ± 0.047 | 2.6 ± 0.046 | 2.23 ± 0.057 | 2.1 ± 0.037 |
| EKSKALESEIASSSAKL [SMC2] | 2.64 ± 0.071 | 2.96 ± 0.078 | 3.03 ± 0.043 | 2.97 ± 0.075 |
| YGGSRCANCVKERIIRA [RPL34A] | 1.56 ± 0.061 | 2.81 ± 0.074 | 2.44 ± 0.082 | 1.57 ± 0.065 |
| IKMQRQFSQLNDPNAAV [MED6] | 3.01 ± 0.07 | 3.04 ± 0.059 | 3.09 ± 0.06 | 3.16 ± 0.059 |
| VEELMKKRRGSRIYKTI [SNU114] | 1.86 ± 0.048 | 1.75 ± 0.053 | 1.62 ± 0.088 | 1.83 ± 0.053 |
| EVQFGLFSPEEVRAISV [RPO21] | 2.85 ± 0.076 | 3.04 ± 0.059 | 3 ± 0.045 | 3.12 ± 0.034 |
| PRLDTSKEFSAYVSGLF [YJR042W/NUP85] | 2.33 ± 0.13 | 2.08 ± 0.082 | 2.05 ± 0.13 | 3.12 ± 0.13 |
| VGQLNKVVDQLFEKASV [RPN6] | 2.5 ± 0.063 | 2.51 ± 0.15 | 2.77 ± 0.076 | 2.5 ± 0.058 |
| SRLCTPIPVQGEIEIKP [RPN13] | 2.42 ± 0.078 | 2.58 ± 0.067 | 1.7 ± 0.26 | 2.66 ± 0.1 |
| LTKLNEDDLVGVVQMVT [TAF14] | 2.89 ± 0.086 | 3.18 ± 0.074 | 3.02 ± 0.065 | 2.98 ± 0.063 |
| RIQKIISKRKEELEEEF [YIL149C/MLP2] | 3.13 ± 0.12 | 2.47 ± 0.13 | 3.02 ± 0.18 | 2.86 ± 0.13 |
| VTEDGSIVTVVSSAKFS [RPL22B] | 2.79 ± 0.1 | 3 ± 0.12 | 2.99 ± 0.1 | 2.87 ± 0.087 |
| MIQTPRELLNPRYTYHT [YML031W/NDC1] | 2.95 ± 0.078 | 2.83 ± 0.081 | 2.98 ± 0.11 | 3.35 ± 0.14 |
| KEKIQHELGINIDSLKF [BRR2] | 3.19 ± 0.065 | 3.07 ± 0.053 | 3.05 ± 0.043 | 3.22 ± 0.06 |
| ILATNSLRILAKLSERS [YJL039C/NUP192] | 2.39 ± 0.062 | 2.67 ± 0.062 | 2.49 ± 0.085 | 2.67 ± 0.053 |
| DIGVLEEYARRLAEFKR [SMC4] | 3.13 ± 0.12 | 3.38 ± 0.11 | 2.74 ± 0.096 | 3.35 ± 0.077 |
| MSISLESSKALADSLDR [DIS3] | 2.53 ± 0.067 | 2.8 ± 0.074 | 2.52 ± 0.096 | 2.45 ± 0.071 |
| FELVHHFFQIDGFNKTF [YML103C/NUP188] | 2.03 ± 0.075 | 2.24 ± 0.091 | 2.42 ± 0.074 | 2.36 ± 0.065 |
| LKWKKGIRGKLVTIEGA [SMC1] | – | 3.31 ± 0.24 | 3.31 ± 0.12 | – |
| GPKSGSTMGTPTVHNST [PGD1] | 3.05 ± 0.078 | 3.04 ± 0.055 | 3.01 ± 0.061 | 3.12 ± 0.06 |

| Sequence | protein stability index (doa10∆) | protein stability index (pdr5∆) | protein stability index (san1∆) | protein stability index (ubr1∆) |
| --- | --- | --- | --- | --- |
| SDSEIPPLLVYKWTQGI [PRP8] | 2.3 ± 0.056 | 2.36 ± 0.057 | 2.26 ± 0.068 | 2.07 ± 0.074 |
| NFADKYDEVKKHWGGGI [RPL8A] | 2.66 ± 0.21 | 3.2 ± 0.12 | 2.97 ± 0.099 | 3.05 ± 0.14 |
| ANARDFGEWAGMTKSNI [BRR2] | 2.28 ± 0.12 | 2.82 ± 0.14 | 1.55 ± 0.12 | 2.37 ± 0.079 |
| GANPRVLSTFTAEFGKI [RPN10] | 2.14 ± 0.11 | 2.08 ± 0.1 | 2.12 ± 0.2 | 2.18 ± 0.073 |
| QNTIDDTEMKMKSLLTE [YIL149C/MLP2] | 3.25 ± 0.066 | 3.39 ± 0.054 | 3.17 ± 0.067 | 3.19 ± 0.05 |
| KAGLMTGGISGDANNRW [SMC1] | 2.38 ± 0.11 | 2.31 ± 0.088 | 2.54 ± 0.062 | 2.51 ± 0.074 |
| EDVTPVPSDSTRKKGGR [RPS14A] | 3.1 ± 0.13 | 3.24 ± 0.079 | 3.41 ± 0.065 | 3.45 ± 0.075 |
| LMLEDTDGDSILYYDVL [BRR2] | 2.85 ± 0.074 | 3.17 ± 0.092 | 3.12 ± 0.067 | 3.1 ± 0.058 |
| RIFISNVSENQPWQMDT [SNF12] | 2.98 ± 0.052 | 3.17 ± 0.072 | 3.09 ± 0.04 | 3.11 ± 0.054 |
| TSSVILGSQSKSDEGGS [YOR098C/NUP1] | – | 2.23 ± 0.12 | – | 1.81 ± 0.15 |
| NITDNLFQELSKVVDDM [GRR1] | 2.69 ± 0.067 | 2.62 ± 0.083 | 2.28 ± 0.07 | 2.81 ± 0.098 |
| NRDRSFQLLEPLSTYNK [PGD1] | 3 ± 0.051 | 2.95 ± 0.062 | 2.93 ± 0.053 | 2.72 ± 0.045 |
| QKSTELLIRKLPFQRLV [HHT1] | 1.26 ± 0.14 | 1.12 ± 0.17 | 1.17 ± 0.21 | 1.3 ± 0.16 |
| MELSPTYQTERFTKFSD [YDL116W/NUP84] | 3.09 ± 0.13 | 2.74 ± 0.17 | – | 2.79 ± 0.22 |
| EILNIFKHISVKDFTSL [RPO21] | 2.41 ± 0.14 | 2.23 ± 0.12 | 2.14 ± 0.11 | 1.85 ± 0.046 |
| KIVVLSRTGPVFDLCWN [RRP43] | 2.07 ± 0.057 | 2.2 ± 0.048 | 2.91 ± 0.066 | 2.39 ± 0.035 |
| QDEVNKGPAIDELSSKE [NNF1] | 3.23 ± 0.061 | 3.36 ± 0.081 | 3.34 ± 0.077 | 3.24 ± 0.057 |
| NSPNYFVAKLAAQIFGS [COR1] | 1.84 ± 0.044 | 2.02 ± 0.061 | 1.68 ± 0.08 | 2.12 ± 0.049 |
| GNKNQFEPSISRSNFQG [LRP1] | 2.76 ± 0.13 | 2.7 ± 0.16 | 2.74 ± 0.073 | 2.34 ± 0.21 |
| AMEKYLLSKSKIGEEDY [MTW1] | 2.35 ± 0.085 | 2.73 ± 0.083 | 2.6 ± 0.1 | 2.73 ± 0.042 |
| NIAQMIPGMSNMMNQVG [SRP54] | 2.47 ± 0.064 | 2.6 ± 0.076 | 2.67 ± 0.06 | 2.7 ± 0.078 |
